Experimental data: patent US20180030546

Target: RAP1 (RAP1-GTPase) (UniProt P62834)
Sequence (P62834 1-181): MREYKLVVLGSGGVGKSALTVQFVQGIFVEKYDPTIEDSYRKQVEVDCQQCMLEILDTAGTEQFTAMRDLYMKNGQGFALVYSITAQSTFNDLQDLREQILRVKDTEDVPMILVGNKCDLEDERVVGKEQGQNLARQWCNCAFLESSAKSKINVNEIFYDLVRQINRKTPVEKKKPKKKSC

## Rap1GAP (RAP1 GTPase Activating Protein)
  RAP1 activity (active GTP-bound RAP1 pull-down, immunoblot with RAP1 antibody): Enforced Rap1GAP expression in human GICs inhibited RAP1 activity
